Reference: article PMC2962916

Target: T1, HMGD-M13A HMG box (D74-M13A) (Drosophila melanogaster, UniProt Q05783 1-74, M13A)
T1 sequence: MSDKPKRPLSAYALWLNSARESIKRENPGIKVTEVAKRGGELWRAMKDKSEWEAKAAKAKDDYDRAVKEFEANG
Test: X-ray crystallography

B1: GCGATATCGC decamer duplex (dsDNA)
DNA 1: GCGATATCGC
DNA 2: GCGATATCGC
binding result: binds
